Reference: PMC11484851, “Structure of endothelin ETB receptor–Gi complex in a conformation stabilized by unique NPxxL motif” (Communications Biology, 2024)

How the values were obtained:
[1] = target: Flag-tagged wild-type endothelin type B receptor (ETBR) (human) (UniProt P24530)
[2] = target: wild-type ETB receptor, Flag-tagged, expressed in HEK293A cells (human) (UniProt P24530)
ETBR V325A (human) = ETBR V325A (human) (UniProt P24530)
ETBR M296A (human) = ETBR M296A (human) (UniProt P24530)
ETBR T324A (human) = ETBR T324A (human) (UniProt P24530)
ETBR K391A (human) = ETBR K391A (human) (UniProt P24530)
ETBR R318A (human) = ETBR R318A (human) (UniProt P24530)
ETBR N134A (human) = ETBR N134A (human) (UniProt P24530)
ETBR M300A (human) = ETBR M300A (human) (UniProt P24530)
ETBR S390A (human) = ETBR S390A (human) (UniProt P24530)
ETBR V389A (human) = ETBR V389A (human) (UniProt P24530)
ETBR H314A (human) = ETBR H314A (human) (UniProt P24530)
Sequence of ETBR H314A (human) (P24530 27-442 H314A): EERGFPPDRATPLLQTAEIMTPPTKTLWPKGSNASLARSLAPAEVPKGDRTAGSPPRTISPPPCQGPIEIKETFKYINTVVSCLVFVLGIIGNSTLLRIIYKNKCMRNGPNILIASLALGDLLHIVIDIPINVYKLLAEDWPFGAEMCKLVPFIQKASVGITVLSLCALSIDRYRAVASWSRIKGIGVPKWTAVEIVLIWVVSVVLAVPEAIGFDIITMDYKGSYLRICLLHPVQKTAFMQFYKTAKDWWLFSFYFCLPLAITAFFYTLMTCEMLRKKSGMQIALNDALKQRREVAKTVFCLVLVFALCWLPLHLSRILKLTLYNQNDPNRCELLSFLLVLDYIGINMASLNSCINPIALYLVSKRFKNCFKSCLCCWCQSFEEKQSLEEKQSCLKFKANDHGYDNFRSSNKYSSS

Sequence of Flag-tagged wild-type endothelin type B receptor (ETBR) (human) (P24530 27-442): as the sequence (P24530 27-442 H314A) above, with A288H counted along it
Sequence of LgBiT-inserted Gαi1, wild type (NanoBiT G-protein construct) (P63096 whole entry): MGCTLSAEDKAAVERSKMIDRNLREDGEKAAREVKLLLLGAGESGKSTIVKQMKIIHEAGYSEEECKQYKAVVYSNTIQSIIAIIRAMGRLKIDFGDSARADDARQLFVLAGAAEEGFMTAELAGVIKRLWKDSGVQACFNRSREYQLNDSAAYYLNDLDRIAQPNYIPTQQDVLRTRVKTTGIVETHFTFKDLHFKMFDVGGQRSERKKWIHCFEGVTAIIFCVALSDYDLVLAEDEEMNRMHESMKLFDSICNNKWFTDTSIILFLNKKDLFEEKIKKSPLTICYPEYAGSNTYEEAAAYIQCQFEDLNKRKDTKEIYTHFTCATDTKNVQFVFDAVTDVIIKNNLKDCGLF
Sequence of wild-type ETB receptor, Flag-tagged, expressed in HEK293A cells (human) (P24530 27-442): as the sequence (P24530 27-442 H314A) above, with A288H counted along it
Sequence of ETBR T324A (human) (P24530 27-442 T324A): as the sequence (P24530 27-442 H314A) above, with A288H, T298A counted along it
Sequence of ETBR S390A (human) (P24530 27-442 S390A): as the sequence (P24530 27-442 H314A) above, with A288H, S364A counted along it
Sequence of ETBR V325A (human) (P24530 27-442 V325A): as the sequence (P24530 27-442 H314A) above, with A288H, V299A counted along it
Sequence of ETBR V389A (human) (P24530 27-442 V389A): as the sequence (P24530 27-442 H314A) above, with A288H, V363A counted along it
Sequence of ETBR N134A (human) (P24530 27-442 N134A): as the sequence (P24530 27-442 H314A) above, with N108A, A288H counted along it
Sequence of ETBR M296A (human) (P24530 27-442 M296A): as the sequence (P24530 27-442 H314A) above, with M270A, A288H counted along it
Sequence of ETBR R318A (human) (P24530 27-442 R318A): as the sequence (P24530 27-442 H314A) above, with A288H, R292A counted along it
Sequence of ETBR M300A (human) (P24530 27-442 M300A): as the sequence (P24530 27-442 H314A) above, with M274A, A288H counted along it
Sequence of ETBR K391A (human) (P24530 27-442 K391A): as the sequence (P24530 27-442 H314A) above, with A288H, K365A counted along it

## LgBiT-inserted Gαi1 L353A (from UniProt P63096 1-354) (natural protein)
[1]
  Supplementary Table 1f: Emax, %WT, of the ET-1 concentration–response in the NanoBiT Gi-protein dissociation assay, HEK293A cells: 7.8 % of WT

## LgBiT-inserted Gαi1 F354A (from UniProt P63096 1-354) (natural protein)
[1]
  Supplementary Table 1f: Emax, %WT, of the ET-1 concentration–response in the NanoBiT Gi-protein dissociation assay, HEK293A cells: 87.8 % of WT

## LgBiT-inserted Gαi1 N347A (from UniProt P63096 1-354) (natural protein)
[1]
  Supplementary Table 1f: Emax, %WT, of the ET-1 concentration–response in the NanoBiT Gi-protein dissociation assay, HEK293A cells: 96.5 % of WT

## LgBiT-inserted Gαi1 C351A (from UniProt P63096 1-354) (natural protein)
[1]
  Supplementary Table 1f: Emax, %WT, of the ET-1 concentration–response in the NanoBiT Gi-protein dissociation assay, HEK293A cells: 87 % of WT

## Gαi1 K345A (LgBiT-inserted NanoBiT construct) (from UniProt P63096 1-354) (natural protein)
[2]
  NanoBiT Gi-protein dissociation assay, ET-1-induced, HEK293A cells, mutant Gαi against wild type: 50 % decrease

## Gαi1 G352A (LgBiT-inserted NanoBiT construct) (from UniProt P63096 1-354) (natural protein)
[2]
  NanoBiT Gi-protein dissociation assay, ET-1-induced, HEK293A cells, mutant Gαi against wild type: 50 % decrease

## LgBiT-inserted Gαi1 K345A (from UniProt P63096 1-354) (natural protein)
[1]
  Supplementary Table 1f: Emax, %WT, of the ET-1 concentration–response in the NanoBiT Gi-protein dissociation assay, HEK293A cells: 48.9 % of WT

## LgBiT-inserted Gαi1, wild type (NanoBiT G-protein construct) (from UniProt P63096 1-354) (natural protein)
ETBR V325A (human)
  Supplementary Table 1d: Emax, %WT, of the ET-1 concentration–response in the NanoBiT Gi-protein dissociation assay, HEK293A cells: 63.5 % of WT
ETBR M296A (human)
  Supplementary Table 1d: Emax, %WT, of the ET-1 concentration–response in the NanoBiT Gi-protein dissociation assay, HEK293A cells: 36.2 % of WT
ETBR T324A (human)
  Supplementary Table 1e: Emax, %WT, of the ET-1 concentration–response in the NanoBiT Gi-protein dissociation assay, HEK293A cells: 77.3 % of WT
ETBR K391A (human)
  Supplementary Table 1e: Emax, %WT, of the ET-1 concentration–response in the NanoBiT Gi-protein dissociation assay, HEK293A cells: 91.2 % of WT
ETBR R318A (human)
  Supplementary Table 1e: Emax, %WT, of the ET-1 concentration–response in the NanoBiT Gi-protein dissociation assay, HEK293A cells: 88.2 % of WT
ETBR N134A (human)
  Supplementary Table 1c: Emax, %WT, of the ET-1 concentration–response in the NanoBiT Gi-protein dissociation assay, HEK293A cells: 54.6 % of WT
ETBR M300A (human)
  Supplementary Table 1d: Emax, %WT, of the ET-1 concentration–response in the NanoBiT Gi-protein dissociation assay, HEK293A cells: 46.9 % of WT
[1]
  Supplementary Table 1c: Emax, %WT, of the ET-1 concentration–response in the NanoBiT Gi-protein dissociation assay, HEK293A cells; WT (35% plasmid): 62.9 % of WT
  Supplementary Table 1c: Emax, %WT, of the ET-1 concentration–response in the NanoBiT Gi-protein dissociation assay, HEK293A cells; WT (50% plasmid): 76.5 % of WT
  Supplementary Table 1c: Emax, %WT, of the ET-1 concentration–response in the NanoBiT Gi-protein dissociation assay, HEK293A cells; WT (100% plasmid): 100 % of WT
  Supplementary Table 1f: Emax, %WT, of the ET-1 concentration–response in the NanoBiT Gi-protein dissociation assay, HEK293A cells; WT Gαi: 100 % of WT
  Supplementary Table 1d (same row in 1e): Emax, %WT, of the ET-1 concentration–response in the NanoBiT Gi-protein dissociation assay, HEK293A cells; WT (100% plasmid): 100 % of WT
ETBR S390A (human)
  Supplementary Table 1c: Emax, %WT, of the ET-1 concentration–response in the NanoBiT Gi-protein dissociation assay, HEK293A cells: 28.8 % of WT
ETBR V389A (human)
  Supplementary Table 1e: Emax, %WT, of the ET-1 concentration–response in the NanoBiT Gi-protein dissociation assay, HEK293A cells: 96.3 % of WT
ETBR H314A (human)
  Supplementary Table 1e: Emax, %WT, of the ET-1 concentration–response in the NanoBiT Gi-protein dissociation assay, HEK293A cells: 90.2 % of WT

## LgBiT-inserted Gαi1 G352A (from UniProt P63096 1-354) (natural protein)
[1]
  Supplementary Table 1f: Emax, %WT, of the ET-1 concentration–response in the NanoBiT Gi-protein dissociation assay, HEK293A cells: 61.8 % of WT

## LgBiT-inserted Gαi1 D341A (from UniProt P63096 1-354) (natural protein)
[1]
  Supplementary Table 1f: Emax, %WT, of the ET-1 concentration–response in the NanoBiT Gi-protein dissociation assay, HEK293A cells: 92.1 % of WT

## LgBiT-inserted Gαi1 D350A (from UniProt P63096 1-354) (natural protein)
[1]
  Supplementary Table 1f: Emax, %WT, of the ET-1 concentration–response in the NanoBiT Gi-protein dissociation assay, HEK293A cells: 92.2 % of WT
